The stoichiometry N is a count of units in the complex or per binding partner.

What all share (assay): SEC
In assay [1] the target is Full-length cytoplasmic C-terminal domain (VARC 1–392) of PfEMP1 (PF08_0141), unphosphorylated (P. falciparum 3D7).
Assay [2] has as its target VARC 87–291 of PfEMP1 (PF08_0141) (P. falciparum 3D7).
The target in assay [3] is VARC 1–291 of PfEMP1 (PF08_0141) (P. falciparum 3D7).
The target of assay [4] is VARC 87–392 of PfEMP1 (PF08_0141) (P. falciparum 3D7).

In assay [1], “Full-length cytoplasmic C-terminal domain (VARC 1–392) of PfEMP1 (PF08_0141), unphosphorylated (domain or fragment)” registered a stoichiometry N of 2. “VARC 87–291 of PfEMP1 (PF08_0141) (domain or fragment)”: in assay [2], the stoichiometry N turned out to be 2.

In turn, “VARC 1–291 of PfEMP1 (PF08_0141) (domain or fragment)” registered a stoichiometry N in assay [3] of 2. Regarding “VARC 87–392 of PfEMP1 (PF08_0141) (domain or fragment)”, in assay [4], the stoichiometry N stood at 2.

These data come from paper PMC2649111.
